Where “and” joins values, the source holds several entries; their conditions need not be identical. Equal values may be shown once.

This note sets out measurements from US20220227866A1 (VELOSBIO, published 2022).

B1: Bispecific construct 4 (bispecific antibody, human IgG1, kappa)
heavy: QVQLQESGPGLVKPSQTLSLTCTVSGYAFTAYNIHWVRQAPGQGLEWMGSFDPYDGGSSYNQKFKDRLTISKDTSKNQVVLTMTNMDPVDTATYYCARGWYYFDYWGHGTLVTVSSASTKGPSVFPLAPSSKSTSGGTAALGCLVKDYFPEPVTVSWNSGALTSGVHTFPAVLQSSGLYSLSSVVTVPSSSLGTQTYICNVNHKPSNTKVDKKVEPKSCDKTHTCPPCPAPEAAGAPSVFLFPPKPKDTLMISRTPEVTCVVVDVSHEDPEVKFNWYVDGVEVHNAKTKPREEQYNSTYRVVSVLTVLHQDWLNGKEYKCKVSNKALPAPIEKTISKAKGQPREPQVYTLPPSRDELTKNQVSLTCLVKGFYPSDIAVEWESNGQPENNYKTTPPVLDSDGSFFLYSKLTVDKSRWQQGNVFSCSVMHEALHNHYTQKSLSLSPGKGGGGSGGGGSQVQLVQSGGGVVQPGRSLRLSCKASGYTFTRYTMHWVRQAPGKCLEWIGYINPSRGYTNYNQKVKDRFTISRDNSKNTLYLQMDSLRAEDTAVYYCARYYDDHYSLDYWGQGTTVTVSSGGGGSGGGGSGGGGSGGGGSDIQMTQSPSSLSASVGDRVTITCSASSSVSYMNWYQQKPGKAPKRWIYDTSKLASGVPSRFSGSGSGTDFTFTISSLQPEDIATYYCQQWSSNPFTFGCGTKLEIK
light: DIVMTQTPLSLPVTPGEPASISCRASKSISKYLAWYQQKPGQAPRLLIYSGSTLQSGIPPRFSGSGYGTDFTLTINNIESEDAAYYFCQQHDESPYTFGEGTKVEIKRTVAAPSVFIFPPSDEQLKSGTASVVCLLNNFYPREAKVQWKVDNALQSGNSQESVTEQDSKDSTYSLSSTLTLSKADYEKHKVYACEVTHQGLSSPVTKSFNRGEC
notes: disulfide-stabilized anti-CD3 scFv Ab8; ROR1 arm Ab1; valency 2/2
B2: Bispecific construct 11 (bispecific antibody, human IgG1, kappa)
heavy: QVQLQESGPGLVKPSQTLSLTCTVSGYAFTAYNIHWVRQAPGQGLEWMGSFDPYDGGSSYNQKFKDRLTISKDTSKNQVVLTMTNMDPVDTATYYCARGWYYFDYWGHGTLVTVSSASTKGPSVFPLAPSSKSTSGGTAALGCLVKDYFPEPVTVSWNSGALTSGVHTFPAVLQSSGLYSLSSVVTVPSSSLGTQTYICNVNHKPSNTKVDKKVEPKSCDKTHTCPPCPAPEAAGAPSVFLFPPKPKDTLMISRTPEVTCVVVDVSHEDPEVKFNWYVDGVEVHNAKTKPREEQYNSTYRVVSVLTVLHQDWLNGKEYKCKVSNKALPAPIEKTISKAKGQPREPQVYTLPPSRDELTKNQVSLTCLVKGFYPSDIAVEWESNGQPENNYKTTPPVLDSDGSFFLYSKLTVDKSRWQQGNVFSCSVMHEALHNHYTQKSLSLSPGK
light: DIVMTQTPLSLPVTPGEPASISCRASKSISKYLAWYQQKPGQAPRLLIYSGSTLQSGIPPRFSGSGYGTDFTLTINNIESEDAAYYFCQQHDESPYTFGEGTKVEIKRTVAAPSVFIFPPSDEQLKSGTASVVCLLNNFYPREAKVQWKVDNALQSGNSQESVTEQDSKDSTYSLSSTLTLSKADYEKHKVYACEVTHQGLSSPVTKSFNRGECGGGGSGGGGSQVQLVQSGAEVKKPGASVKVSCKASGYTFTRYTMHWVRQAPGQCLEWMGYINPSRGYTNYNQKFKDRVTLTTDKSSSTAYMELSSLRSEDTAVYYCARYYDDHYSLDYWGQGTLVTVSSGGGGSGGGGSGGGGSGGGGSDIQMTQSPSSLSASVGDRVTITCSASSSVSYMNWYQQKPGKAPKRLIYDTSKLASGVPSRFSGSGSGTDFTLTISSLQPEDFATYYCQQWSSNPFTFGCGTKLEIK
notes: disulfide-stabilized anti-CD3 scFv Ab9; ROR1 arm Ab1; valency 2/2
B3: Bispecific construct 12 (bispecific antibody, human IgG1, kappa)
heavy: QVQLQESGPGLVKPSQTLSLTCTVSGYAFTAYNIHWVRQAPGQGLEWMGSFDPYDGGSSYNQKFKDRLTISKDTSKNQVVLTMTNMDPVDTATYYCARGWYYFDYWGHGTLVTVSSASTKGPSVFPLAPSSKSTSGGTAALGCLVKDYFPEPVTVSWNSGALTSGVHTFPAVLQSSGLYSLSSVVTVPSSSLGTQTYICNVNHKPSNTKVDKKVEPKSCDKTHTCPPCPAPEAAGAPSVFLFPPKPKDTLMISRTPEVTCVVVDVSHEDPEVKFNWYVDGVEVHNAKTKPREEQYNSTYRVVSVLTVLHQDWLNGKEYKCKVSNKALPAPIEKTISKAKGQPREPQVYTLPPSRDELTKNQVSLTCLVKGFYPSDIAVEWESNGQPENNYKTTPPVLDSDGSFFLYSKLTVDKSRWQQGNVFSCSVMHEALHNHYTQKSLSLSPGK
light: DIVMTQTPLSLPVTPGEPASISCRASKSISKYLAWYQQKPGQAPRLLIYSGSTLQSGIPPRFSGSGYGTDFTLTINNIESEDAAYYFCQQHDESPYTFGEGTKVEIKRTVAAPSVFIFPPSDEQLKSGTASVVCLLNNFYPREAKVQWKVDNALQSGNSQESVTEQDSKDSTYSLSSTLTLSKADYEKHKVYACEVTHQGLSSPVTKSFNRGECGGGGSGGGGSEVQLVESGGGLVQPGGSLRLSCAASGFTFNTYAMNWVRQAPGKCLEWVARIRSKYNNYATYYADSVKGRFTISRDDSKNTLYLQMNSLRAEDTAVYYCVRHGNFGNSYVSYFAYWGQGTTVTVSSGGGGSGGGGSGGGGSGGGGSEIVVTQSPATLSVSPGERATLSCRSSTGAVTAANYANWVQEKPGQAFRGLIGGANKRAPGVPARFSGSLSGDEATLTISSLQSEDFAVYYCALFYSNLWVFGCGTKLEIK
notes: disulfide-stabilized anti-CD3 scFv Ab10; ROR1 arm Ab1; valency 2/2
B4: Bispecific construct 14 (bispecific antibody, human IgG1, kappa)
heavy 1: not shown
heavy 2: QVQLVQSGAEVKKPGASVKVSCKASGYTFTRYTMHWVRQAPGQGLEWMGYINPSRGYTNYNQKFKDRVTLTTDKSSSTAYMELSSLRSEDTAVYYCARYYDDHYSLDYWGQGTLVTVSSGGGGSGGGGSGGGGSGGGGSDIQMTQSPSSLSASVGDRVTITCSASSSVSYMNWYQQKPGKAPKRLIYDTSKLASGVPSRFSGSGSGTDFTLTISSLQPEDFATYYCQQWSSNPFTFGQGTKLEIKEPKSSDKTHTCPPCPAPEAAGAPSVFLFPPKPKDTLMISRTPEVTCVVVDVSHEDPEVKFNWYVDGVEVHNAKTKPREEQYNSTYRVVSVLTVLHQDWLNGKEYKCKVSNKALPAPIEKTISKAKGQPREPQVYTLPPSRDELTKNQVSLSCAVKGFYPSDIAVEWESNGQPENNYKTTPPVLDSDGSFFLVSKLTVDKSRWQQGNVFSCSVMHEALHNHYTQKSLSLSPGK
light: B1 light
notes: anti-CD3 scFv Ab9; ROR1 arm Ab1; valency 1/1
B5: Bispecific construct 3 (bispecific antibody, human IgG1, kappa)
heavy: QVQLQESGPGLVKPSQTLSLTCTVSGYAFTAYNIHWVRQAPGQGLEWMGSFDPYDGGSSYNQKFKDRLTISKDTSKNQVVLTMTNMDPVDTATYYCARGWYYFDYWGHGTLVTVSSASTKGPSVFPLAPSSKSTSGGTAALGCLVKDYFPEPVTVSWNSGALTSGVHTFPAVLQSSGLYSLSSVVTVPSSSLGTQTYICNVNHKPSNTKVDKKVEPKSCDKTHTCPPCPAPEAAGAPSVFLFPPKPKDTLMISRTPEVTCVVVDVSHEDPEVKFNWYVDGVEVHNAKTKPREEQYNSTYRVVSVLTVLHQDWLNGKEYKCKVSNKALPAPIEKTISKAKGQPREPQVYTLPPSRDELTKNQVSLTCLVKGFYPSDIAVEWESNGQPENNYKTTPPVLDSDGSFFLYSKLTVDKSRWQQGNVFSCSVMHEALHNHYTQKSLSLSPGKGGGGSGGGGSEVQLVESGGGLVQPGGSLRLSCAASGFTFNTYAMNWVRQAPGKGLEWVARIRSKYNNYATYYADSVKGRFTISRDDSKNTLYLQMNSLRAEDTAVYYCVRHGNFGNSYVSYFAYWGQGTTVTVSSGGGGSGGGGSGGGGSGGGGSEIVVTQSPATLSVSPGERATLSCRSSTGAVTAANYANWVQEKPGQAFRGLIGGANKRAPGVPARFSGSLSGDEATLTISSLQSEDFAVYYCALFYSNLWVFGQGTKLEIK
light: B1 light
notes: anti-CD3 scFv Ab10 (SP34-based); ROR1 arm Ab1; valency 2/2
B6: Bispecific construct 6 (bispecific antibody, human IgG1, kappa)
heavy: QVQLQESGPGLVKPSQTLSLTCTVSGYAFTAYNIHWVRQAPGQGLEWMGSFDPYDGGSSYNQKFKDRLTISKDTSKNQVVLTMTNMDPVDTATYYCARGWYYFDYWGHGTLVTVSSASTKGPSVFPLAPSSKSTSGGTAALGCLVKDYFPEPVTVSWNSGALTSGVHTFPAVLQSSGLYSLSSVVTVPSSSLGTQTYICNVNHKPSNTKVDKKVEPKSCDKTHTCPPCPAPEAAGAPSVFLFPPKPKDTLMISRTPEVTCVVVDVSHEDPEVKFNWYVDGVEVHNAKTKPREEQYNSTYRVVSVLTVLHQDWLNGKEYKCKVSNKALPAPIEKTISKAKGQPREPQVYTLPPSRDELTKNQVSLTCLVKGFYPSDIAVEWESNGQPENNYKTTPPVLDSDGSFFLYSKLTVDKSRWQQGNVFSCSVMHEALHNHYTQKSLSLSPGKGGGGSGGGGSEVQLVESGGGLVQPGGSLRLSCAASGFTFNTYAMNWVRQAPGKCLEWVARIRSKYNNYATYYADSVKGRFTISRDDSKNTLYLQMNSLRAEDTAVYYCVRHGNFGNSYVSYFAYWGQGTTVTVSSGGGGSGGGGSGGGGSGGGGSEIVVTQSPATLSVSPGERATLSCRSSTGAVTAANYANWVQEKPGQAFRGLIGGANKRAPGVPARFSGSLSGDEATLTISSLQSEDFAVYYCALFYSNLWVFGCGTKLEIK
light: B1 light
notes: as for B3
B7: Bispecific construct 15 (bispecific antibody, human IgG1, kappa)
heavy 1: not shown
heavy 2: EVQLVESGGGLVQPGGSLRLSCAASGFTFNTYAMNWVRQAPGKGLEWVARIRSKYNNYATYYADSVKGRFTISRDDSKNTLYLQMNSLRAEDTAVYYCVRHGNFGNSYVSYFAYWGQGTTVTVSSGGGGSGGGGSGGGGSGGGGSEIVVTQSPATLSVSPGERATLSCRSSTGAVTAANYANWVQEKPGQAFRGLIGGANKRAPGVPARFSGSLSGDEATLTISSLQSEDFAVYYCALFYSNLWVFGQGTKLEIKEPKSSDKTHTCPPCPAPEAAGAPSVFLFPPKPKDTLMISRTPEVTCVVVDVSHEDPEVKFNWYVDGVEVHNAKTKPREEQYNSTYRVVSVLTVLHQDWLNGKEYKCKVSNKALPAPIEKTISKAKGQPREPQVYTLPPSRDELTKNQVSLSCAVKGFYPSDIAVEWESNGQPENNYKTTPPVLDSDGSFFLVSKLTVDKSRWQQGNVFSCSVMHEALHNHYTQKSLSLSPGK
light: B1 light
notes: anti-CD3 scFv Ab10 (SP34-based); ROR1 arm Ab1; valency 1/1
B8: Bispecific construct 10 (bispecific antibody, human IgG1, kappa)
heavy: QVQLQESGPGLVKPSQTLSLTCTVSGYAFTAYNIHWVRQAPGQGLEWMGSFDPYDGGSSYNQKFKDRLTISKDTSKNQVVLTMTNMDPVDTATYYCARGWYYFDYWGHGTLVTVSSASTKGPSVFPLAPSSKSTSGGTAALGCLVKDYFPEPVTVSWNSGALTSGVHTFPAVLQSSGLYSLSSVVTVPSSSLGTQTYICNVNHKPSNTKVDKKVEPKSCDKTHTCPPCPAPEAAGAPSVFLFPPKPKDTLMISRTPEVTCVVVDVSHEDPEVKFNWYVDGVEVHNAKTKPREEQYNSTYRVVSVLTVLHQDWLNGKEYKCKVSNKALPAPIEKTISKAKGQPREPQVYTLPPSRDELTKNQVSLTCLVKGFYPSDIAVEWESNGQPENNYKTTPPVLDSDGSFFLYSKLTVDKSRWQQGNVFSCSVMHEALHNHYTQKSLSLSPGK
light: DIVMTQTPLSLPVTPGEPASISCRASKSISKYLAWYQQKPGQAPRLLIYSGSTLQSGIPPRFSGSGYGTDFTLTINNIESEDAAYYFCQQHDESPYTFGEGTKVEIKRTVAAPSVFIFPPSDEQLKSGTASVVCLLNNFYPREAKVQWKVDNALQSGNSQESVTEQDSKDSTYSLSSTLTLSKADYEKHKVYACEVTHQGLSSPVTKSFNRGECGGGGSGGGGSQVQLVQSGGGVVQPGRSLRLSCKASGYTFTRYTMHWVRQAPGKCLEWIGYINPSRGYTNYNQKVKDRFTISRDNSKNTLYLQMDSLRAEDTAVYYCARYYDDHYSLDYWGQGTTVTVSSGGGGSGGGGSGGGGSGGGGSDIQMTQSPSSLSASVGDRVTITCSASSSVSYMNWYQQKPGKAPKRWIYDTSKLASGVPSRFSGSGSGTDFTFTISSLQPEDIATYYCQQWSSNPFTFGCGTKLEIK
notes: as for B1

T1 sequence (Q01973 30-937 limits assumed): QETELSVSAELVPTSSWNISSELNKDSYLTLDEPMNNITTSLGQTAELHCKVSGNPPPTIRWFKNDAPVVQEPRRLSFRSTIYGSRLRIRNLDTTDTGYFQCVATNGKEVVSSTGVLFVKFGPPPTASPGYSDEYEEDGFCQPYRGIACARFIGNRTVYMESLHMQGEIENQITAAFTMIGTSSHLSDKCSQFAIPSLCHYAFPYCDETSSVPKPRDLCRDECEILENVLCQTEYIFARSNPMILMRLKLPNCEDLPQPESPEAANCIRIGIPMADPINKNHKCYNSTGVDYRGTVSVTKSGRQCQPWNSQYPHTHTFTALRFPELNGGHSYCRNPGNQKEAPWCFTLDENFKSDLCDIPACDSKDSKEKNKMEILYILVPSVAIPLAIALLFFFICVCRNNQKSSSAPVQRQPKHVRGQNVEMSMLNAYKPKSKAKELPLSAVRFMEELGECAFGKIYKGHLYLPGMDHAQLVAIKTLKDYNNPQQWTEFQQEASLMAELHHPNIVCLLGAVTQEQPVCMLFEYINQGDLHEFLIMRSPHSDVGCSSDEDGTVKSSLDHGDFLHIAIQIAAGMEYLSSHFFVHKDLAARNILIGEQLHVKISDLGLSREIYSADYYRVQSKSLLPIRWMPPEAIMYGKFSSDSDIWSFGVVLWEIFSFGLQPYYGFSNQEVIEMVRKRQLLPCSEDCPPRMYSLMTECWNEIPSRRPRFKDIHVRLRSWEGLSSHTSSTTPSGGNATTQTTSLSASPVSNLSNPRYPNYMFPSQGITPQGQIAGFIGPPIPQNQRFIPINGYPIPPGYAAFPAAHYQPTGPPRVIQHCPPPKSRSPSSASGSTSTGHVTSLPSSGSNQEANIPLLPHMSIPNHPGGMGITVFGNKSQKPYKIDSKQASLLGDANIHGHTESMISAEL
T2 sequence (Q01973 30-406 limits assumed): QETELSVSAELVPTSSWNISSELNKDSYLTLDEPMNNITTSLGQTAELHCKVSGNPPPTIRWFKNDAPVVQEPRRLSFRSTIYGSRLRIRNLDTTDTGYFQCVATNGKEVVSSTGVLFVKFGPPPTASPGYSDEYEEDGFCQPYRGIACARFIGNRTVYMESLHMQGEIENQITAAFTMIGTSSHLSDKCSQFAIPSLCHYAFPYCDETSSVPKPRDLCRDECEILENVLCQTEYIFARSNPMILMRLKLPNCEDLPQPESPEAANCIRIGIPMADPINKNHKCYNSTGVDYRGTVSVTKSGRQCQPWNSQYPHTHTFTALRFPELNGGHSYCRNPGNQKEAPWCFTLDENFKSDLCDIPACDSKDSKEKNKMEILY

The first assay addresses T1, human ROR1 on cells (human, UniProt Q01973 30-937).
T1 construct: Cell-surface ROR1; also called ROR1-transfected MEC cells; JeKo-1 cells
Briefly: flow cytometry on JeKo-1 cells. As for the experimental part:
ROR1 binding was quantitated using both ROR1-transfected MEC cells and JeKo-1 cells. For each condition, 2.5E5 cells were used. The cells were placed in 50 μL of PBS with 2% FBS. Next, the cells were diluted with an equal volume of 2× stock of the test bispecific binding molecule. The cells and antibody were co-incubated on ice for 20 min. The cells were then washed 3 times with 300 μL of FACS buffer and were resuspended in 100 μL of anti-human Fc-PE conjugate antibody (Invitrogen cat. #12499882) and incubated on ice with reduced light for 20 min. Subsequently, the cells were washed 3 times with 300 μL of FACS buffer and fixed with 2% paraformaldehyde for 10 min at 25° C. The cells then were washed 2 times with 300 μL of FACS buffer and analyzed on a Miltenyi MACSQuant Analyzer.
The influence of ROR expression levels on binding of the bispecific constructs was assessed by flow cytometry using JeKo-1 cells. JeKo-1 cells express lower levels of ROR (˜13,000 copies/cell) than the ROR1-transfected MEC cells (˜56,000 copies/cell). All constructs bound JeKo-1 cells (FIG. 5). […] Specifically, monovalent ROR1 constructs generally bound more weakly than the bivalent constructs (FIG. 5, Panel A, compare constructs 14 and 15 with other constructs; FIG. 5, Panel C, compare constructs 15-17 with other constructs).
For B1, the half-maximal effective concentration (EC50 (read off the curve)) is roughly 0.02 µg/mL.

A further assay concerns the target T2, soluble biotinylated human ROR1 extracellular domain (human, UniProt Q01973 30-406, biotinylated with EZ-Link Sulfo-NHS-LC-Biotin at a 1:5 molar ratio).
T2 construct: Acro Biosystems cat; whole entry named; also called b-ROR1; soluble b-ROR1
The assay can be described thus: ELISA, captured construct, biotinylated ROR1 titrated. As for the experimental part:
To measure the binding of bispecific constructs to soluble ROR1, a 96-well Costar-3366 plate was coated with 50 μL/well of 2 μg/mL goat anti-human kappa (Southern Biotech cat. #2060-01) in PBS overnight at 4° C. The plate was rinsed once with PBS-T, blocked with 100 μL/well 5% M-P for 1 h at 25° C., rinsed once with PBS-T, and 2 μg/mL of the bispecific binding molecule was added and incubated for 1 h at 25° C. The plate was washed three times with PBS-T. Biotinylated ROR1 was diluted serially, 3-fold in 5% M-P and was incubated for 1 h at 25° C. (50 μL/well). The plate was washed three times with PBS-T. To detect the binding of b-ROR1, 50 μL/well Neutravidin-HRP (Pierce cat. #31030) diluted 1:5000 in 1% BSA-PBS was added for 1 h at 25° C. The plate was washed three times with PBS-T, then developed with 50 μL/well 1-Step Ultra TMB-ELISA (Thermo Scientific cat. #34028). The reaction was terminated by the addition of 2 N H₂SO₄ and the A450 was determined using a Spectramax plate reader.
The stronger binding observed with bivalent constructs versus monovalent constructs in cell assays and ELISAs in which the antigen is immobilized is consistent with an avidity effect. To determine if this was the case, binding to soluble monomeric ROR1 was assessed by immobilizing the bispecific binding molecules on a microtiter plate coated with goat anti-human kappa antibody and titrating biotinylated RORL. All bispecific binding molecules were active in this format (FIG. 7), and in most cases, there were no notable differences between monovalent and bivalent constructs.
Consider B2, for which the Kd amounted to 0.073 nM.
As to B3, the Kd was found to be 0.086 nM.
Still for that read-out and setting: under B1 stands 0.105 nM; under B4, 0.109 nM.
In the case of B5, the Kd was determined as 0.147 nM.
Same read-out and setting: for B6 the value was 0.082 nM; for B7, 0.157 nM.
On the same count and under the same terms, under B8 stands 0.094 nM.

The target of a further assay is T3, recombinant human ROR1 extracellular domain (human, UniProt Q01973 30-406).
T3 construct: Bought (Acro Biosystems cat. R01-H522Y); whole entry named; also called ROR1-ECD; immobilized ROR1
T3 sequence (Q01973 30-406 limits assumed): as above
Briefly: ELISA, immobilised ROR1 ECD, construct titrated. As for the experimental part: A 96-well Costar-3366 plate was coated with 50 μL/well of 2 μg/mL […] (Acro Biosystems cat. #R01-H522Y) in PBS overnight at 4° C. The plate was rinsed once with PBS containing 0.05% Tween 20 (PBS-T) and blocked with 100 μL/well of 5% non-fat milk in PBS (5% M-P) for 1 h at 25° C. Antibody samples were serially diluted 2-fold using 5% M-P and were incubated for 1 h at 25° C. (50 μL/well). The plate was washed three times with PBS-T and 50 μL/well anti-human kappa, HRP conjugate (Southern Biotech cat. #2060-05) diluted 10,000-fold in 5% M-P was added for 1 h at 25° C. The plate was washed three times with PBS-T, developed with 50 μL/well 1-Step Ultra TMB-ELISA (Thermo Scientific cat. #34028). The reaction was terminated by the addition of 2 N H₂SO₄ and the A450 was determined using a Spectramax plate reader.
Next, the binding of bispecific binding molecules to ROR was characterized by ELISA using recombinantly-expressed extracellular domain of RORL. ROR was immobilized on a microtiter plate, the bispecific binding molecules were titrated, and binding was quantitated with an anti-human kappa-HRP reagent. Consistent with the cell binding data, all constructs bound ROR1 in a concentration-dependent manner (FIG. 6). Moreover, monovalent ROR1 constructs 13-15 bound less tightly than all but two of the bivalent constructs.
For the molecule B2, the Kd stood at 0.092 nM.
Same read-out and setting: under B3 stands 0.116 nM; under B1, 0.085 nM.
The same measure, in the same setting: under B4 stands 0.408 nM.
B5: the Kd came to 0.233 nM.
Same read-out and setting: under B6 stands 0.033 nM; under B7, 0.301 nM.
Same read-out and setting: under B8 stands 0.144 nM.

A further assay has as its target T1, human ROR1 on cells. The assay can be described thus: cell-based or functional assay.
Turning to B4, the “EC50, LDH release, ROR1-transfected MEC” value is 5 ng/mL and 40 pM; the “Max. LDH Release, ROR1-transfected MEC” value came out at 48%.

The target of another assay is T4, human CD3 on Jurkat cells (human, UniProt P09693 23-182; P04234 22-171; P07766 23-207).
T4 construct: GenBank NP_000064.1, NP_000723.1, NP_000724.1
T4 sequence (P09693 23-182 limits assumed, chain 1 of 3): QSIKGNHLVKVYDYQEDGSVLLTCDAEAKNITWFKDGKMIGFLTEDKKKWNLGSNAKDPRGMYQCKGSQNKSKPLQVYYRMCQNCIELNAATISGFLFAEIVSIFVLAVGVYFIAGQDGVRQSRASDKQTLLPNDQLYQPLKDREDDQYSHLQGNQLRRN
T4 sequence (P04234 22-171 limits assumed, chain 2 of 3): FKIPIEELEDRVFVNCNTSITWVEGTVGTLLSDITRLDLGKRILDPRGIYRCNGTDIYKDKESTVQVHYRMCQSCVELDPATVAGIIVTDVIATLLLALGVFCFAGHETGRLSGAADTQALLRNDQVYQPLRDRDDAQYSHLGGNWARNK
T4 sequence (P07766 23-207 limits assumed, chain 3 of 3): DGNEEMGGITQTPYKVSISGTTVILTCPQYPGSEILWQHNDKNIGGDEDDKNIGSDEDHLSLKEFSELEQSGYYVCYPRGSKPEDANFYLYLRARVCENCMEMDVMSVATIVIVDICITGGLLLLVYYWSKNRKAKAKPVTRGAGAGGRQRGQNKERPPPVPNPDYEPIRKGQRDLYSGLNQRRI
The assay can be described thus: flow cytometry on Jurkat cells. As for the experimental part:
To quantitate CD3 binding, 2.5E5 Jurkat cells were used for each condition. A 2× stock of the cells was made by resuspending the cells to 5E6/mL by placing in 50 μL of PBS with 2% FBS. Next, the cells were diluted with an equal volume of 2× stock of the test bispecific binding molecule. The cells and antibody were co-incubated on ice for 20 min. The cells were then washed 3 times with 300 μL of FACS buffer and were resuspended in 100 μL of goat anti-human Fc-PE conjugate antibody (Invitrogen cat. #12499882) at 1:500 dilution and incubated on ice with reduced light for 20 min. The cells were then washed 3 times with 300 μL of FACS buffer and fixed with 2% paraformaldehyde for 10 min at 25° C. The cells were washed 2 times with 300 μL of FACS buffer and analyzed on a Miltenyi MACSQuant Analyzer.
In the case of B2, the binding result is given as “binds”.
Same read-out and setting: for B3 the value was “binds”; for B1, “binds”; for B4, “binds”.
Same read-out and setting: for B5 the value was “binds”; for B6, “binds”; for B7, “binds”.
Same read-out and setting: under B8 stands “binds”.
